Source: the supplement of paper PMC9732359
± gives the uncertainty stated by the source.

Assay: protein stability index of a GFP-peptide fusion (yeast GPS) (PSI 1-4); higher = more stable; sorted into four equal gates, so the index is relative within each strain
How it was run: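 Each library plasmid carries Cherry plus GFP with a tiled 17-residue yeast protein peptide fused downstream, and the pooled library was carried in yeast. Mid-log cultures in leucine-free medium were sorted into four equal gates by GFP/Cherry ratio. Reads from Illumina sequencing of PCR-amplified plasmids from each gate were assigned to strains by barcodes. Per peptide, the protein stability index was computed as the summed products of gate read frequency and gate number.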

Sequence | protein stability index (doa10∆) | protein stability index (pdr5∆) | protein stability index (san1∆) | protein stability index (ubr1∆)
LAYENKITDKEDLLHYI [POP4] | 3.35 ± 0.15 | 3.31 ± 0.068 | 3.2 ± 0.068 | 3.24 ± 0.088
FAWSKPSTGSNLQQQQQ [YGR119C/NUP57] | 3.02 ± 0.061 | 3.06 ± 0.063 | 3.02 ± 0.05 | 2.95 ± 0.045
SSLHSPTSDEPVPESAG [SRB4] | 2.61 ± 0.065 | 3.16 ± 0.081 | 2.95 ± 0.063 | 3 ± 0.057
VVEKEKIESLAGGGESD [UBP6] | 3.35 ± 0.2 | 2.84 ± 0.24 | 2.89 ± 0.19 | 3.34 ± 0.15
KIRRHPNIMLIFGSGFG [FAS1] | 1.9 ± 0.057 | 2.07 ± 0.061 | 1.68 ± 0.13 | 1.39 ± 0.054
YRRLFAKRLIHGTSTSA [CDC53] | 1.44 ± 0.11 | 1.36 ± 0.11 | – | –
TINEMMKHLGRSEGNPV [FAS2] | 2.5 ± 0.09 | 2.76 ± 0.064 | 2.53 ± 0.066 | 2.94 ± 0.072
TIWCVCDSYLDADKELS [BRR2] | 2.39 ± 0.059 | 2.44 ± 0.07 | 2.92 ± 0.057 | 2.75 ± 0.072
YTDRDQDEVNKGPAIDE [NNF1] | 2.12 ± 0.092 | 2.01 ± 0.085 | 1.89 ± 0.13 | 2.13 ± 0.14
TAVAFWSWDIAVDNCAI [HRT1] | 1.33 ± 0.07 | 1.49 ± 0.067 | 1.52 ± 0.12 | 1.55 ± 0.043
KFEPLYPREEEEDYNEF [PRP8] | 3.35 ± 0.15 | 3.31 ± 0.13 | 3.12 ± 0.072 | 3.37 ± 0.096
NFPVRQWSIEIVLLDDE [TAF14] | 1.57 ± 0.07 | 1.5 ± 0.055 | 2.37 ± 0.093 | 2.19 ± 0.059
QELKADSPFSLICQNNL [SRP72] | 2.53 ± 0.078 | 2.56 ± 0.064 | 2.66 ± 0.054 | 2.85 ± 0.049
EYYRIQKQLPQKTRVKL [ESC2] | 2.79 ± 0.055 | 2.77 ± 0.05 | 2.86 ± 0.05 | 2.82 ± 0.039
KTYEPVLNEDDLAFGGE [RPN5] | 3.27 ± 0.09 | 3.1 ± 0.089 | 3.29 ± 0.058 | 3.51 ± 0.12
KDFVTMAIEIINDIRDD [YCG1] | 1.85 ± 0.12 | 1.7 ± 0.16 | 2.17 ± 0.2 | 2.42 ± 0.19
PNVSDKYYLEESNVNDS [NUT1] | 3.2 ± 0.26 | 2.85 ± 0.15 | 3.21 ± 0.096 | 3.17 ± 0.14
YHGNECEINYYEILLKI [SRB8] | 1.66 ± 0.055 | 2.86 ± 0.082 | 2.24 ± 0.089 | 2.4 ± 0.082
NEDDALIYGISDEERDD [AAR2] | 3.29 ± 0.12 | 3.53 ± 0.13 | 3.62 ± 0.066 | 3.2 ± 0.12
IRGILMASGSTTFTKVA [PRP8] | 2.76 ± 0.063 | 2.02 ± 0.1 | 2.02 ± 0.16 | 2.15 ± 0.088
AAGALFVSSGFDTSIKL [RPN14] | 2.41 ± 0.052 | 2.52 ± 0.045 | 2.18 ± 0.064 | 2.49 ± 0.035
MAKTLKDLDGWQVIITD [SIR3] | 1.65 ± 0.16 | 2.4 ± 0.12 | 2.81 ± 0.14 | 2.71 ± 0.14
NGSSDASSLRFGNSLSN [YDL088C/ASM4] | 2.77 ± 0.071 | 2.76 ± 0.075 | 2.69 ± 0.05 | 2.56 ± 0.1
MTMQVAVPRDELGRSNY [FAS1] | 2.7 ± 0.085 | 3 ± 0.11 | 2.99 ± 0.047 | 2.99 ± 0.092
PALLRPGRLDRKIEFPS [RPT3] | 3.2 ± 0.11 | 3.08 ± 0.11 | 3.07 ± 0.11 | 3 ± 0.066
KLSKSATESIKNRRRIH [SMC1] | – | – | – | 2.62 ± 0.25

Sequence | protein stability index (doa10∆) | protein stability index (pdr5∆) | protein stability index (san1∆) | protein stability index (ubr1∆)
MKYLAAYLLLVQGGNAA [RPP2B] | 1.53 ± 0.051 | 1.78 ± 0.038 | 1.78 ± 0.069 | 2 ± 0.065
HYMVHEALNLLKFFLVD [LIN1] | 2.19 ± 0.053 | 1.7 ± 0.043 | 1.79 ± 0.081 | 2.11 ± 0.058
DLLRSQLTSLEKDCSLR [YIL149C/MLP2] | 2.94 ± 0.061 | 3.05 ± 0.063 | 2.33 ± 0.077 | 3.03 ± 0.042
IPNLTAKPFQVTKEYFQ [FAS1] | 2.61 ± 0.051 | 2.95 ± 0.049 | 3.04 ± 0.061 | 2.79 ± 0.041
KNKYLKDVLAQTSVTTN [SWP82] | 2.5 ± 0.065 | 2.5 ± 0.06 | 2.71 ± 0.098 | 2.37 ± 0.044
LMETLRTLRRKGDINPE [RPB2] | 3.08 ± 0.1 | 3.37 ± 0.079 | 2.85 ± 0.088 | 3.16 ± 0.069
PSKSQTNFKEEITDASL [YML103C/NUP188] | 2.93 ± 0.15 | 3.13 ± 0.11 | 3.02 ± 0.18 | 2.92 ± 0.18
RKFKSRRCDDMLYYIQN [POP4] | 2.74 ± 0.069 | 2.98 ± 0.088 | 2.81 ± 0.062 | 2.85 ± 0.048
KNLSLLAEEVVDNIVNK [SRP68] | 3.15 ± 0.092 | 2.9 ± 0.13 | 3.16 ± 0.066 | 3.01 ± 0.089
NATHDEDEFIVQHDQIL [SWP82] | 2.93 ± 0.036 | 3.13 ± 0.032 | 2.96 ± 0.032 | 3.044 ± 0.023
VQSGQIYINKSVPTNSA [RET1] | 3.29 ± 0.14 | 3.32 ± 0.082 | 3.35 ± 0.091 | 3.33 ± 0.086
KLITTYISLLKLQGLYE [YDL116W/NUP84] | 2.23 ± 0.059 | 1.82 ± 0.061 | 1.66 ± 0.072 | 1.72 ± 0.052
GSRVLIFSQMSRLLDIL [ISW2] | 3.27 ± 0.15 | 3.46 ± 0.11 | 3.18 ± 0.11 | 3.58 ± 0.08
ITATLVGTVRCEEEKKT [CSL4] | 1.54 ± 0.14 | 1.9 ± 0.25 | 1.67 ± 0.16 | 1.58 ± 0.079
ECENEIKTKQMSLKKCQ [SMC2] | 2.92 ± 0.25 | 3.28 ± 0.1 | 3.22 ± 0.076 | 3.32 ± 0.058
INHKINNKITQLIAKNV [SIR3] | 1.58 ± 0.063 | 1.7 ± 0.062 | 2.22 ± 0.077 | 2.16 ± 0.064
VKTTLVSLTQLRCVKYL [RPC82] | 1.4 ± 0.13 | 1.27 ± 0.079 | 1.16 ± 0.25 | 1.37 ± 0.11
ISICMILCGIQEYLNPV [YDL116W/NUP84] | 1.97 ± 0.1 | 1.61 ± 0.11 | – | 1.87 ± 0.14
DEGHVLKLENLHVVSKS [SIN4] | 3.14 ± 0.11 | 2.65 ± 0.16 | 2.73 ± 0.19 | 3.02 ± 0.13
KLVRDSFTSATERHIQV [PRE7] | 2.78 ± 0.075 | 2.9 ± 0.055 | 3.17 ± 0.055 | 2.37 ± 0.057
ELVETSEVRKAVSIETA [FAS2] | 2.43 ± 0.14 | – | – | 1.27 ± 0.27
SQSKGTVWSANFEYDLS [YOR098C/NUP1] | – | 3.35 ± 0.15 | 2.69 ± 0.28 | 3.38 ± 0.12
YRFYEYIYSQETKSWIN [MED1] | 1.7 ± 0.065 | 1.93 ± 0.06 | 1.53 ± 0.11 | 1.82 ± 0.042
SANERLFGNRPSMMAPL [YML031W/NDC1] | 2.96 ± 0.21 | 2.63 ± 0.13 | 2.62 ± 0.12 | 3.03 ± 0.089
LKSLNDIETQLCSMLQE [MED11] | 2.54 ± 0.084 | 2.91 ± 0.079 | 2.73 ± 0.11 | 3 ± 0.059
GVDNLRRMGILKKILDQ [RPO31] | 2.48 ± 0.1 | 2.7 ± 0.11 | 2.4 ± 0.083 | 2.96 ± 0.04
